“Also recorded” adds a separate entry of the source.
Key:
[1] = test system: K562 cells; assay: Peptide internalization Western blot, K562 cells; format: cell-based, human; conditions: 30 μM, 1.5 hours, Western blot of cell lysates
Procedure: 1.0×10^6 cells resuspended in RPMI or DMEM were seeded in a CellStar 6 well plate (Sigma Aldrich). Cells were then treated with the peptides (CPP-CCmut3, CPP-CCwt, CCmut3, and CPP-His) at a final concentration 30 uM. This is a standard concentration used in cell-penetrating peptide studies. For the kinase activity Western blot, cells were treated with peptides for 16 hours.
For the internalization experiment, cells were treated with peptides for 1.5 hours followed by a 15 minute incubation at 37° C. with heparin sulfate, 0.5 mg/mL (a gift from Kuby Balagurunathan, University of Utah). Cells were centrifuged and resuspended in 1 mL plain RPMI. Trypsin was added to a final concentration of 0.1% w/v, and the cells were incubated at 37° C. for 10 minutes. At that time 1 mL FBS was added to neutralize the trypsin. Cells were then centrifuged at 500×g for 10 minutes, followed by 3 rounds of washes with 5 mL cold PBS.
For both kinase activity and internalization Western blots, cells were resuspended in 100 μL of RIPA lysis buffer (Cell Signaling, Danvers, Mass., USA) with 100× protease/phosphatase inhibitor added (Cell Signaling) and transferred into a pre-chilled microcentrifuge tube. Cells were then sonicated, centrifuged at 12,000×g for 15 minutes, and then the supernatant was transferred into a fresh, pre-chilled microcentrifuge tube. […]

[2] = test system: Ba/F3 cells expressing native BCR-ABL1; assay: Proliferation of transfected Ba/F3 cells with native p210 BCR-ABL1 (MTS assay); format: cell-based, mouse; conditions: CCmut3 vs EV; for reduction of proliferation: 96 h
Procedure: Stable recombinant Ba/F3 cells transduced with wild type p210 BCR-ABL1 (Daley, G. Q., et al. (1991) Proc. Natl. Acad. Sci. U.S.A. 88, 11335-11338), the kinase domain mutants p210^T315I p210^[…], or the compound mutant p210^E255V/T315I were as previously described (La Rosee, P., et al. (2002) Cancer Res. 62, 7149-7153; O'Hare, T., et al. (2004) Blood 104, 2532-2539). These cells were cultured in RPMI with 10% FBS, 1% penicillin, streptomycin, glutamine, and 0.1% gentamycin (RPMI1640). Additionally 0.1% MycoZap™ (Lonza Bio, Basel, Switzerland) was added to prevent mycoplasma contamination. The non-transduced parental Ba/F3 cell line was grown in RPMI1640 supplemented with 20% WEHI-3B conditioned medium as a source of murine IL-3 (Dexter, T. M., et al. (1980) J. Exp. Med. 152, 1036-1047). Ba/F3 cells were transfected with plasmid DNA using the Amaxa nucleofection system (Lonza Bio), following the manufacturer's instructions. Cells were sorted on a BD FACSAria cytometer (BD Biosciences, San Jose, Calif.) for double-positive cells expressing mCherry and GFP then returned to RPMI1640 for subsequent experiments.
Cell proliferation was assessed using the CellTiter 96® AQueous One Solution Cell Proliferation Assay (MTS assay, Promega) according to manufacturer instructions. Briefly, 5,000 viable cells were added to a single well in 96-well plate in 100 μL RPMI1640. Three independent samples were seeded in duplicate for each time point. […] In some experiments, cell proliferation was assessed using a Neubauer chamber and trypan blue dye exclusion.
Stable Ba/F3 cells transduced with native (p210) BCR-ABL1, the kinase domain mutants BCR-ABL1T315I, BCR-ABL1E255V, or the compound mutant BCR-ABL1E255V/T315I were cultured. […]
Cell proliferation was assessed using a […] viability assay (MTS assay) utilizing CellTiter 96® AQueous One Solution Cell Proliferation Assay (Promega) according to manufacturer instructions. […] Cell growth was assessed by MTS assay at 72 and 96 h. […] In patient sample experiments, cell proliferation was assessed by trypan blue exclusion.

[3] = test system: Ba/F3-p210-T315I cells; assay: Trypan blue proliferation assay of transfected Ba/F3-p210-T315I cells; format: cell-based, mouse; conditions: CC^mut3 alone, trypan blue exclusion, 72 and 96 h
Procedure: Cell counts were performed using a standard light microscope.

B1: CCmut3: modified Bcr-Abl coiled-coil domain (residues 1-72) with mutations C38A, K39E, S41R, L45D, E48R, Q60E (protein)
chain: MVDPVGFAEAWKAQFPDSEPPRMELRSVGDIEQELERAEARIRRDEQRVNQERFRMIYLETLLAKEKKSYDR
In the case of B1, the internalization into cells [1] is reported as “unable to enter the cells; also recorded: not internalized; also recorded: did not enter”, the reduction of proliferation [2] is reported as greater than 2 fold and the reduction of proliferation ([2]; listed as CC^mut3) is reported as “more than 2 fold”. The “proliferation, in words” value [2] was “significantly reduced proliferation at 96 h” and the cell proliferation [3] was “inhibit Ba/F3-p210-T315I cell proliferation”.
